Measured values reported in patent US20160356775.

Tests used:
[1] = target: T1, GST-recombinant human FoXO3a, O43524
T1 chain: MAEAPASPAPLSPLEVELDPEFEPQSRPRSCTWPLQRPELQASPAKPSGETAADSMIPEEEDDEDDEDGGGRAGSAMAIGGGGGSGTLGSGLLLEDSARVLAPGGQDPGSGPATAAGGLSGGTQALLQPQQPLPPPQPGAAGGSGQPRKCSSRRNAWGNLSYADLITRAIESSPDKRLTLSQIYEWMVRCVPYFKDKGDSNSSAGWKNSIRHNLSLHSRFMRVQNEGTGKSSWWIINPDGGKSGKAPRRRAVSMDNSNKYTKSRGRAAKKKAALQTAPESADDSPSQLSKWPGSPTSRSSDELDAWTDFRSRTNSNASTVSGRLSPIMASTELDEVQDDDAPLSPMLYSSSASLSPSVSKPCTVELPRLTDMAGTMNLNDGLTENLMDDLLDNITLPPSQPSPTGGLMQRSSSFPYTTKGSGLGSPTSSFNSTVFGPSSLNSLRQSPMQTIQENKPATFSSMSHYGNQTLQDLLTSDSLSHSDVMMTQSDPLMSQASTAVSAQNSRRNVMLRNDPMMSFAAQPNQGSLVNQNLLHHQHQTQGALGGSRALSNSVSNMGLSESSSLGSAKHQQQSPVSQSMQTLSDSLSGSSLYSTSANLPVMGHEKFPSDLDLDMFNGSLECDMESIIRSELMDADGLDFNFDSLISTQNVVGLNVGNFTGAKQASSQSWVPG

[2] = target: T2, full length recombinant human ERα protein (Invitrogen), P03372
T2 chain: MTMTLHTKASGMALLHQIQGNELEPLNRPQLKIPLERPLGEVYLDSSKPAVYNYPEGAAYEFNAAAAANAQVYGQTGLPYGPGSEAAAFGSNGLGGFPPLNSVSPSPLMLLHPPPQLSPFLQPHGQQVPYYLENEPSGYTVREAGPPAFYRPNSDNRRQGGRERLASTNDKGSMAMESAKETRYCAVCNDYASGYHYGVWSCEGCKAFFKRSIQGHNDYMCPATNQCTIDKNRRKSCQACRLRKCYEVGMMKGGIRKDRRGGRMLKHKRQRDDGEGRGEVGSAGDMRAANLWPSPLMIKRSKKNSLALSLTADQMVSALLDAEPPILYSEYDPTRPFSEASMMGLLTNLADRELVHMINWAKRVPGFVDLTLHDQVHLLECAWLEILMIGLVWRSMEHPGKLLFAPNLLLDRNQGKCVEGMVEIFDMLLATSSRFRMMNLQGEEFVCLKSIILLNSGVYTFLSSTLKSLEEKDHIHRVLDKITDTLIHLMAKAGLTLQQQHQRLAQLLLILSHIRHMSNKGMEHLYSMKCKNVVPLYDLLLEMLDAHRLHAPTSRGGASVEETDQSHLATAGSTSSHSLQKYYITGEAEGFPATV

[3] = target: recombinant PKC (Promega)

B1: recombinant LMTK3 kinase domain (protein)
chain: LSYLQEIGSGWFGKVILGEIFSDYTPAQVVVKELRASAGPLEQRKFISEAQPYRSLQHPNVLQCLGLCVETLPFLLIMEFCQLGDLKRYLRAQRPPEGLSPELPPRDLRTLQRMGLEIARGLAHLHSHNYVHSDLALRNCLLTSDLTVRIGDYGLAHSNYKEDYYLTPERLWIPLRWAAPELLGELHGTFMVVDQSRESNIWSLGVTLWELFEFGAQPYRHLSDEEVLAFVVRQQHVKLARPRLKLPYADYWYDILQSCWRPPAQRPSASDLQLQLTYL
in vitro kinase assay (32P autoradiography) [1]: LMTK3 directly phosphorylates ... FoxO3a
in vitro phosphorylation followed by in vitro proteasome degradation assay [2]: phosphorylation of ERα by LMTK3 (FIG. 20d) rescued ERα from in vitro proteasome-mediated degradation (FIG. 20e)
in vitro kinase assay, PKC phosphorylation of histone [3]: LMTK3 inhibits the ability of PKC to phosphorylate histone
